In patent US20160326228A1 (ACCELERON PHARMA, published 2016):

How the values were obtained:
[1] = biological target: T1, Growth and Differentiation Factor-8 (GDF8) (UniProt O14793 267-375); assay: BiaCore; receptor-Fc captured by anti-hFc antibody, ligand injected
T1 construct: also called myostatin
T1 sequence (looked up): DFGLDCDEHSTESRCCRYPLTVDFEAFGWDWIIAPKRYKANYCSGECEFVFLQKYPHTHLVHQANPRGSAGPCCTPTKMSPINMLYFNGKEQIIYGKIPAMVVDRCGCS
Protocol: (§1) Binding of certain ActRIIB-Fc proteins and GDF Traps to ligands was tested in a BiaCore™ assay.
(§2) The ActRIIB-Fc variants or wild-type protein were captured onto the system using an anti-hFc antibody. Ligands were injected and flowed over the captured receptor proteins.

[2] = biological target: T2, Growth and Differentiation Factor-11 (GDF11) (UniProt O95390 299-407); assay: as above
T2 construct: also called BMP11
T2 sequence (looked up): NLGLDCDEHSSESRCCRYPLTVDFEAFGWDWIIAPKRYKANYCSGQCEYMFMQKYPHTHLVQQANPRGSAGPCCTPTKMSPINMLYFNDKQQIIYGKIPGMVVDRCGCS
Protocol: as §1, §2

[3] = biological target: T2, Growth and Differentiation Factor-11 …; assay: BiaCore; ligand coupled, receptor flowed over
[4] = biological target: T3, Activin A (UniProt P08476 311-426); assay: BiaCore; ligand coupled, receptor flowed over
T3 construct: also called ActA
T3 sequence (looked up): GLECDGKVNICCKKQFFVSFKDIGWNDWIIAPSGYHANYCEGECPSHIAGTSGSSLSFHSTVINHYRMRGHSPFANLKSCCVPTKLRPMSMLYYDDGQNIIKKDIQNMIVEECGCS

[5] = biological target: T3, Activin A; assay: BiaCore; receptor-Fc captured by anti-hFc antibody, ligand injected
Protocol: as §1, §2

[6] = biological target: T2, Growth and Differentiation Factor-11 …; assay: BiaCore; ligand coupled, receptor flowed over; legend: <1/5 WT binding

B1: ActRIIB(L79E 20-134)-hFc (Fc fusion)
chain: GRGEAETRECIYYNANWELERTNQSGLERCEGEQDKRLHCYASWRNSSGTIELVKKGCWEDDFNCYDRQECVATEENPQVYFCCCEGNFCNERFTHLPEAGGPEVTYEPPPTAPTGGGTHTCPPCPAPELLGGPSVFLFPPKPKDTLMISRTPEVTCVVVDVSHEDPEVKFNWYVDGVEVHNAKTKPREEQYNSTYRVVSVLTVLHQDWLNGKEYKCKVSNKALPVPIEKTISKAKGQPREPQVYTLPPSREEMTKNQVSLTCLVKGFYPSDIAVEWESNGQPENNYKTTPPVLDSDGSFFLYSKLTVDKSRWQQGNVFSCSVMHEALHNHYTQKSLSLSPGK
Kd [1]: 2.41 nM
koff [1]: 0.0009 s⁻¹
Kd [2]: 0.716 nM
koff [2]: 0.000274 s⁻¹

B2: Soluble ActRIIB-Fc WT (64A) (Fc fusion, UniProt Q13705 19-119, looked up)
chain: SGRGEAETRECIYYNANWELERTNQSGLERCEGEQDKRLHCYASWANSSGTIELVKKGCWLDDFNCYDRQECVATEENPQVYFCCCEGNFCNERFTHLPEA
notes: whole entry named; not shown: linker (if any) and Fc
Kd [3]: 260 nM
Kd [4]: 180 nM

B3: ActRIIB(R64K 20-129)-hFc (Fc fusion)
chain: GRGEAETRECIYYNANWELERTNQSGLERCEGEQDKRLHCYASWKNSSGTIELVKKGCWLDDFNCYDRQECVATEENPQVYFCCCEGNFCNERFTHLPEAGGPEVTYEPP
notes: not shown: linker (if any) and human Fc (hFc)
Kd [1]: 2.15 nM
koff [1]: 0.000209 s⁻¹
Kd [5]: 0.0841 nM
koff [5]: 0.000628 s⁻¹
kon [5]: 7.46e+06 M⁻¹ s⁻¹

B4: ActRIIB(A24N 20-134)-hFc (Fc fusion)
chain: GRGENETRECIYYNANWELERTNQSGLERCEGEQDKRLHCYASWRNSSGTIELVKKGCWLDDFNCYDRQECVATEENPQVYFCCCEGNFCNERFTHLPEAGGPEVTYEPPPTAPT
notes: also called A24N variant; not shown: linker (if any) and human Fc (hFc)
Kd [2]: 0.0519 nM
koff [2]: 6.35e-05 s⁻¹
Kd [5]: 0.104 nM
koff [5]: 0.000346 s⁻¹
kon [5]: 3.34e+06 M⁻¹ s⁻¹

B5: ActRIIB(P129S, P130R 20-134)-hFc (Fc fusion)
chain: GRGEAETRECIYYNANWELERTNQSGLERCEGEQDKRLHCYASWRNSSGTIELVKKGCWLDDFNCYDRQECVATEENPQVYFCCCEGNFCNERFTHLPEAGGPEVTYEPSRTAPT
notes: T0017 prints a P129S P130A variant; kept as a separate molecule; not shown: linker (if any) and human Fc (hFc)
Kd [1]: 1.67 nM
koff [1]: 0.00018 s⁻¹
Kd [5]: 0.0831 nM
koff [5]: 0.000417 s⁻¹
kon [5]: 5.02e+06 M⁻¹ s⁻¹

B6: ActRIIB(K74A 20-134)-hFc (Fc fusion)
chain: GRGEAETRECIYYNANWELERTNQSGLERCEGEQDKRLHCYASWRNSSGTIELVAKGCWLDDFNCYDRQECVATEENPQVYFCCCEGNFCNERFTHLPEAGGPEVTYEPPPTAPT
notes: as for B3
Kd [1]: 0.0718 nM
koff [1]: 2.03e-05 s⁻¹

B7: ActRIIB(R64K 20-134)-hFc (Fc fusion)
chain: GRGEAETRECIYYNANWELERTNQSGLERCEGEQDKRLHCYASWKNSSGTIELVKKGCWLDDFNCYDRQECVATEENPQVYFCCCEGNFCNERFTHLPEAGGPEVTYEPPPTAPT
notes: as for B3
Kd [1]: 0.21 nM
koff [1]: 4.71e-05 s⁻¹
Kd [2]: 0.0356 nM
koff [2]: 2.41e-05 s⁻¹
Kd [5]: 0.0476 nM
koff [5]: 0.000325 s⁻¹
kon [5]: 6.82e+06 M⁻¹ s⁻¹

B8: Soluble ActRIIB-Fc variant D54A (Fc fusion)
chain: GRGEAETRECIYYNANWELERTNQSGLERCEGEQAKRLHCYASWANSSGTIELVKKGCWLDDFNCYDRQECVATEENPQVYFCCCEGNFCNERFTHLPEA
notes: as for B2
binding result [3]: no binding

B9: Soluble ActRIIB-Fc variant D80K (Fc fusion)
chain: GRGEAETRECIYYNANWELERTNQSGLERCEGEQDKRLHCYASWANSSGTIELVKKGCWLKDFNCYDRQECVATEENPQVYFCCCEGNFCNERFTHLPEA
notes: as for B2
binding result [3]: no binding
binding result [4]: no binding

B10: Soluble ActRIIB-Fc variant K74F (Fc fusion)
chain: GRGEAETRECIYYNANWELERTNQSGLERCEGEQDKRLHCYASWANSSGTIELVFKGCWLDDFNCYDRQECVATEENPQVYFCCCEGNFCNERFTHLPEA
notes: as for B2
binding relative to WT [6]: < 0.2 fold
binding result [4]: no binding

B11: Soluble ActRIIB-Fc variant D80F (Fc fusion)
chain: GRGEAETRECIYYNANWELERTNQSGLERCEGEQDKRLHCYASWANSSGTIELVKKGCWLFDFNCYDRQECVATEENPQVYFCCCEGNFCNERFTHLPEA
notes: as for B2
binding result [3]: no binding
binding result [4]: no binding

B12: Soluble ActRIIB-Fc variant K74I (Fc fusion)
chain: GRGEAETRECIYYNANWELERTNQSGLERCEGEQDKRLHCYASWANSSGTIELVIKGCWLDDFNCYDRQECVATEENPQVYFCCCEGNFCNERFTHLPEA
notes: as for B2
binding relative to WT [6]: < 0.2 fold
binding result [4]: no binding

B13: Soluble ActRIIB-Fc variant R56A (Fc fusion)
chain: GRGEAETRECIYYNANWELERTNQSGLERCEGEQDKALHCYASWANSSGTIELVKKGCWLDDFNCYDRQECVATEENPQVYFCCCEGNFCNERFTHLPEA
notes: as for B2
binding result [3]: no binding
binding result [4]: no binding

B14: Soluble ActRIIB-Fc variant W78A (Fc fusion)
chain: GRGEAETRECIYYNANWELERTNQSGLERCEGEQDKRLHCYASWANSSGTIELVKKGCALDDFNCYDRQECVATEENPQVYFCCCEGNFCNERFTHLPEA
notes: as for B2
binding result [3]: no binding
binding result [4]: no binding

B15: Soluble ActRIIB-Fc variant D80I (Fc fusion)
chain: GRGEAETRECIYYNANWELERTNQSGLERCEGEQDKRLHCYASWANSSGTIELVKKGCWLIDFNCYDRQECVATEENPQVYFCCCEGNFCNERFTHLPEA
notes: as for B2
binding relative to WT [6]: < 0.2 fold
binding result [4]: no binding

B16: Soluble ActRIIB-Fc variant K74Y (Fc fusion)
chain: GRGEAETRECIYYNANWELERTNQSGLERCEGEQDKRLHCYASWANSSGTIELVYKGCWLDDFNCYDRQECVATEENPQVYFCCCEGNFCNERFTHLPEA
notes: as for B2
binding relative to WT [6]: < 0.2 fold
binding result [4]: no binding

B17: Soluble ActRIIB-Fc variant D80N (Fc fusion)
chain: GRGEAETRECIYYNANWELERTNQSGLERCEGEQDKRLHCYASWANSSGTIELVKKGCWLNDFNCYDRQECVATEENPQVYFCCCEGNFCNERFTHLPEA
notes: as for B2
binding result [3]: no binding
binding result [4]: no binding

B18: Soluble ActRIIB-Fc variant D80G (Fc fusion)
chain: GRGEAETRECIYYNANWELERTNQSGLERCEGEQDKRLHCYASWANSSGTIELVKKGCWLGDFNCYDRQECVATEENPQVYFCCCEGNFCNERFTHLPEA
notes: as for B2
binding result [3]: no binding
binding result [4]: no binding

B19: Soluble ActRIIB-Fc variant K74A (Fc fusion)
chain: GRGEAETRECIYYNANWELERTNQSGLERCEGEQDKRLHCYASWANSSGTIELVAKGCWLDDFNCYDRQECVATEENPQVYFCCCEGNFCNERFTHLPEA
notes: as for B2
Kd [3]: 5.3 nM
Kd [4]: 4.35 nM

B20: Soluble ActRIIB-Fc variant E37A (Fc fusion)
chain: GRGEAETRECIYYNANWALERTNQSGLERCEGEQDKRLHCYASWANSSGTIELVKKGCWLDDFNCYDRQECVATEENPQVYFCCCEGNFCNERFTHLPEA
notes: as for B2
binding result [3]: no binding
binding result [4]: no binding

B21: Soluble ActRIIB-Fc variant K55A (Fc fusion)
chain: GRGEAETRECIYYNANWELERTNQSGLERCEGEQDARLHCYASWANSSGTIELVKKGCWLDDFNCYDRQECVATEENPQVYFCCCEGNFCNERFTHLPEA
notes: as for B2
binding result [3]: no binding

B22: Soluble ActRIIB-Fc variant D80R (Fc fusion)
chain: GRGEAETRECIYYNANWELERTNQSGLERCEGEQDKRLHCYASWANSSGTIELVKKGCWLRDFNCYDRQECVATEENPQVYFCCCEGNFCNERFTHLPEA
notes: as for B2
binding result [3]: no binding
binding result [4]: no binding

B23: Soluble ActRIIB-Fc variant D80A (Fc fusion)
chain: GRGEAETRECIYYNANWELERTNQSGLERCEGEQDKRLHCYASWANSSGTIELVKKGCWLADFNCYDRQECVATEENPQVYFCCCEGNFCNERFTHLPEA
notes: as for B2
binding result [3]: no binding
binding result [4]: no binding

B24: Soluble ActRIIB-Fc variant D80M (Fc fusion)
chain: GRGEAETRECIYYNANWELERTNQSGLERCEGEQDKRLHCYASWANSSGTIELVKKGCWLMDFNCYDRQECVATEENPQVYFCCCEGNFCNERFTHLPEA
notes: as for B2
binding result [3]: no binding
binding result [4]: no binding

B25: Soluble ActRIIB-Fc variant L79A (Fc fusion)
chain: GRGEAETRECIYYNANWELERTNQSGLERCEGEQDKRLHCYASWANSSGTIELVKKGCWADDFNCYDRQECVATEENPQVYFCCCEGNFCNERFTHLPEA
notes: as for B2
binding result [3]: no binding
